Molecular target: unphosphorylated beta subunit of the insulin receptor (IRβ), recombinant (UniProt P06213)
Assay: SPR; Biacore T200, unphosphorylated IRβ immobilised on a CM5 chip; same amounts of IRS1 or IRS2 injected together with different (nM) concentrations of C646; HBS-P buffer (10 mM Hepes, 150 mM NaCl, 0.05% P20, pH 7.4), 30 μl/min, 25 °C; global fit to 1:1 Langmuir model

unphosphorylated beta subunit of the insulin receptor (IRβ), recombinant, sequence (P06213 763-1382): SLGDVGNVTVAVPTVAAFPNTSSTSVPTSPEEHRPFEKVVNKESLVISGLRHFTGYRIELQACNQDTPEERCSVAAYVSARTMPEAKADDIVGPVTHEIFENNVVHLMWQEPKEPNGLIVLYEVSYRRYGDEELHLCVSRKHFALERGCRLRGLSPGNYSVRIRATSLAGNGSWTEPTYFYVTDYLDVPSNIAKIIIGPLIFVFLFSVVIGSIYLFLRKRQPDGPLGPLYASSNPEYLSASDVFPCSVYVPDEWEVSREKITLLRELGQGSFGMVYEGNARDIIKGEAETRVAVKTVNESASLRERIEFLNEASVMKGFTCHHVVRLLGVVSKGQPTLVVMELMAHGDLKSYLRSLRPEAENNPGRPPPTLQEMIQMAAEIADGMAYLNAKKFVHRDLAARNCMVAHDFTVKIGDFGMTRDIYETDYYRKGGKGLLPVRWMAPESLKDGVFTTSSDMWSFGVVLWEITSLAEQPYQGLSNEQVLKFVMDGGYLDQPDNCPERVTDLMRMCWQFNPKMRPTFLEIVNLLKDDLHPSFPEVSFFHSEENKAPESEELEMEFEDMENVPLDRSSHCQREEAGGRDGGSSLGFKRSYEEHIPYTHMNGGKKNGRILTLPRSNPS

KD with C646	Substance
2.86e-13	purified IRS1 protein (insulin receptor substrate 1) (from UniProt P35569 1-1233) (natural protein)
7.6e-12	purified IRS2 protein (insulin receptor substrate 2) (from UniProt P81122 1-1321) (natural protein)
